Data from EP4653467A1 (Wuhan Zhaozhi Biotechnology Co., Ltd., dated 2025).

Molecular target: T1, CD22 on RAJI cells (UniProt P20273 20-847, limits assumed)
T1 sequence (looked up): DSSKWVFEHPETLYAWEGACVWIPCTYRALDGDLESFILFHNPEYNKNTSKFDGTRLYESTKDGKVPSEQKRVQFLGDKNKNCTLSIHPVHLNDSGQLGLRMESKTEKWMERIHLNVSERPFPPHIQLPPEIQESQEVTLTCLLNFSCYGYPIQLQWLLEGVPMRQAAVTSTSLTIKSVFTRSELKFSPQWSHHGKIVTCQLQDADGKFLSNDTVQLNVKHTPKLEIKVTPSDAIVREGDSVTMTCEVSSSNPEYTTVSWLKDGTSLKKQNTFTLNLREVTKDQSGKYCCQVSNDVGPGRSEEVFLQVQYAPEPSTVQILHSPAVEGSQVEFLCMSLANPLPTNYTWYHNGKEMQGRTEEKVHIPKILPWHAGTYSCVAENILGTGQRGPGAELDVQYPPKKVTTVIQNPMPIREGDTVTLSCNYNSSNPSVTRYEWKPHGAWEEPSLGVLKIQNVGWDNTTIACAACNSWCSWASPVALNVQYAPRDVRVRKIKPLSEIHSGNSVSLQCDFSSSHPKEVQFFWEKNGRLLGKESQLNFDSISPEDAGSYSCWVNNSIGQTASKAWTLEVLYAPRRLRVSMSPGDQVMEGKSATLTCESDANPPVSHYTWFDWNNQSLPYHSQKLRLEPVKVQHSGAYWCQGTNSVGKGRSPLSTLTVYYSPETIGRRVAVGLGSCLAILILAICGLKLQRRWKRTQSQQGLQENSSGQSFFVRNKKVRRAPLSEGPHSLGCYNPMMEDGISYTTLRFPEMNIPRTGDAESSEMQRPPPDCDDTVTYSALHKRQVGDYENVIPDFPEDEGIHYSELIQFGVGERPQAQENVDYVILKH
Experiment: cell-based or functional assay

B1: CAR22 (CAR molecule targeting CD22) (other)
chain: MALPVTALLLPLALLLHAAIPDTEVQLVESGGGLVKPGGSLKLSCAASGFAFSIYDMSWVRQTPEKRLEWVAYISSGGGTYYPDTVKGRFTISRDNAKNTLYLQMSSLKSEDTAMYYCARHSGYGTHWGVLFAYWGQGTLVTVSAGGGGSGGGGSGGGGSDIQMTQTTSSLSASLGDRVTISCRASQDISNYLNWYQQKPDGTVKLLIYYTSILHSGVPSRFSGSGSGTDYSLTISNLEQEDFATYFCQQGNTLPWTFGGGTKLEIKATTTPAPRPPTPAPTIASQPLSLRPEACRPAAGGAVHTRGLDFACDFWVLVVVGGVLACYSLLVTVAFIIFWVRSKRSRLLHSDYMNMTPRRPGPTRKHYQPYAPPRDFAAYRSKRGRKKLLYIFKQPFMRPVQTTQEEDGCSCRFPEEEEGGCELRVKFSRSADAPAYQQGQNQLYNELNLGRREEYDVLDKRRGRDPEMGGKPRRKNPQEGLYNELQKDKMAEAYSEIGMKGERRRGKGHDGLYQGLSTATKDTYDALHMQALPPR
target cell lysis (calcein release), CAR-T cells on RAJI positive target cells, effector-to-target ratio 2:1: 11.5%
target cell lysis (calcein release), CAR-T cells on RAJI positive target cells, effector-to-target ratio 10:1: 46.9%
target cell lysis (calcein release), CAR-T cells on RAJI positive target cells, effector-to-target ratio 50:1: 94.4%
